Reference: patent publication US20210162061A1 (DINGFU BIOTARGET, published 2021)

B1: AB6.12 IgG1 (antibody, V domains shown)
VH: QMQLVQSGAEVKKTGSSVKVSCKASGFNIKDYYLHWVRQAPGQALEWMGWIDPDQGDTEYAQKFQDRVTITRDRSMSTAYMELSSLRSEDTAMYYCNAAYGSSSYPMDYWGQGTTVTVSS
VL: NIQMTQSPSAMSASVGDRVTITCKASQDIHRYLSWFQQKPGKVPKHLIYRANRLVSGVPSRFSGSGSGTEFTLTISSLQPEDFATYYCLQYDEFPYTFGGGTKVEIKR
notes: also called anti-CD47 monoclonal antibody AB6.12 IgG1; Group 20
B2: hu56di-CV1 (Fc fusion)
chain 1: QVQLVESGGGLVQPGGSLRLSCAASGKMSSRRCMAWFRQAPGKERERVAKLLTTSGSTYLADSVKGRFTISRDNSKNTVYLQMNSLRAEDTAVYYCAADSFEDPTCTLVTSSGAFQYWGQGTLVTVSSGAPQVQLVESGGGLVQPGGSLRLSCAASGKMSSRRCMAWFRQAPGKERERVAKLLTTSGSTYLADSVKGRFTISRDNSKNTVYLQMNSLRAEDTAVYYCAADSFEDPTCTLVTSSGAFQYWGQGTLVTVSSEPKSSDKTHTCPPCPAPELLGGPSVFLFPPKPKDTLMISRTPEVTCVVVDVSHEDPEVKFNWYVDGVEVHNAKTKPREEQYNSTYRVVSVLTVLHQDWLNGKEYKCKVSNKALPAPIEKTISKAKGQPREPQVYTLPPCRDELTKNQVSLWCLVKGFYPSDIAVEWESNGQPENNYKTTPPVLDSDGSFFLYSALTVDKSRWQQGNVFSCSVMHEALHNHYTQKSLSLSPGK
chain 2: EEELQIIQPDKSVLVAAGETATLRCTITSLFPVGPIQWFRGAGPGRVLIYNQRQGPFPRVTTVSDTTKRNNMDFSIRIGNITPADAGTYYCIKFRKGSPDDVEFKSGAGTELSVRAKPSGGGGSDKTHTCPPCPAPELLGGPSVFLFPPKPKDTLMISRTPEVTCVVVDVSHEDPEVKFNWYVDGVEVHNAKTKPREEQYNSTYRVVSVLTVLHQDWLNGKEYKCKVSNKALPAPIEKTISKAKGQPREPQVYTLPPSRDELTKNQVSLSCGVKGFYPSDIAVEWESNGQPENNYKTTPPVLDSDGSFKLASKLTVDKSRWQQGNVFSCSVMHEALHNHYTQKSLSLSPGK
notes: also called Group 14

Key:
CD47-EGFP = molecular target: T1, CD47-EGFP (human); assay: flow cytometry (MFI, anti-hIgG Fc PE) on cells expressing CD47-EGFP, unit taken from the axis Log10(ug/ml)
T1 construct: also called cell surface human CD47; cells expressing CD47-EGFP
Description: The cells were then analyzed by flow cytometry (Life Technology).

CD47-muFc = molecular target: T2, CD47-muFc (human); assay: BLI (Octet K2), CD47-muFc immobilised on AHC biosensors, 25 C
T2 construct: also called CD47-muFc fusion protein; Group 8
Description: All experiments were performed at 25° C. under a PBS buffer containing 0.5% BSA and 0.5% Tween 20, pH 7.2. […] After the above steps, the subtracted binding interference data were applied to the calculations of binding constants using the FortéBio analysis software provided with the instrument.

human CD47 [1] = molecular target: T3, human CD47 (human, UniProt Q08722 19-323); assay: flow cytometry histogram, 20 µg/ml, anti-hIgG Fc PE; tumor cells mixed with 15-fold excess of human RBCs; RBC gate
T3 construct: whole, on cells; also called CD47 on A375 cells; CD47 on human erythrocytes (RBC)

human CD47 [2] = molecular target: T3, human CD47; assay: flow cytometry histogram, 20 µg/ml, fresh human RBCs diluted 2500 times

T2 sequence (chain, as listed by the source limits assumed): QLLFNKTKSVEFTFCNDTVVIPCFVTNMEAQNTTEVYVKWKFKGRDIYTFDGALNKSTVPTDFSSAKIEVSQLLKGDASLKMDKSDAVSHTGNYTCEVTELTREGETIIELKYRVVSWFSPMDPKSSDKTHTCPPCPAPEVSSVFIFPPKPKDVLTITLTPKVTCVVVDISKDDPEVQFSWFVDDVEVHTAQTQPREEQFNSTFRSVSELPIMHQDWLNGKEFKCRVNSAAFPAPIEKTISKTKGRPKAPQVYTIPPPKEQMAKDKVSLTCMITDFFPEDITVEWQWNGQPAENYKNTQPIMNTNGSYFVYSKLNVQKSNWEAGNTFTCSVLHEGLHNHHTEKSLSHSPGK

Row | Binder | EC50 (CD47-EGFP) [µg/mL] | Kd (CD47-muFc) [nM] | koff (CD47-muFc) [s⁻¹] | kon (CD47-muFc) [M⁻¹ s⁻¹] | binding result (human CD47 [1]) | binding result (human CD47 [2])
1 | B1 | 0.981 | 0.198 | 0.000129 | 651000 | binds | 
2 | B2 |  |  |  |  |  | binds
